Experimental data: patent US20190276511A1 (BIONTECH RNA PHARMACEUTICALS, published 2019)

Assays:
CD40-Fc [1] = biological target: T1, CD40-Fc (human, UniProt P25942 21-193); experiment: ELISA, coated receptor-Fc
T1 construct: extracellular domain; hinge included for covalent assembly; also called CD40 receptor-Fc fusion protein; not shown: human Fc gamma 1 region including the hinge region

CD27-Fc [2] = biological target: T2, CD27-Fc (human, UniProt P26842 20-191); experiment: ELISA, coated receptor-Fc
T2 construct: extracellular domain; hinge included for covalent assembly; also called CD27 receptor-Fc fusion protein; not shown: human Fc gamma 1 region including the hinge region
T2 sequence (looked up): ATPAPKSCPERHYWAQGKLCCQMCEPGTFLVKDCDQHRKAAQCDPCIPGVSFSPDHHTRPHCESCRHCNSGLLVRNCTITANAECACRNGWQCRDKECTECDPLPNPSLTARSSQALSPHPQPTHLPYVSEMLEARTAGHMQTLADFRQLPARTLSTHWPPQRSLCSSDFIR

4-1BB receptor on cells = 4-1BB receptor on cells (human, UniProt Q07011 24-255); experiment: cell-based or functional assay
OX40 receptor on cells = biological target: T3, OX40 receptor on cells (human, UniProt P43489 29-277); experiment: cell-based or functional assay
T3 sequence (looked up): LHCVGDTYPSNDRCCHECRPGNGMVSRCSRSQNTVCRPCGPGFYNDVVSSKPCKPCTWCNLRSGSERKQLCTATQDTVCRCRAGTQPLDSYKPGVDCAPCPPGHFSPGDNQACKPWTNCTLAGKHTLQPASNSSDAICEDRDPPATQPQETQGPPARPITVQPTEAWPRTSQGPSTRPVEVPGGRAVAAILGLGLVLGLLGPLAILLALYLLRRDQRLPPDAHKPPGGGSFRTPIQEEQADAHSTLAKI

4-1BB-Fc [3] = biological target: T4, 4-1BB-Fc (human, UniProt Q07011 24-186); experiment: ELISA, coated receptor-Fc
T4 construct: extracellular domain; hinge included for covalent assembly; also called 4-1BB receptor-Fc fusion protein; not shown: human Fc gamma 1 region including the hinge region

OX40-Fc = biological target: T5, OX40-Fc (human, UniProt P43489 29-214); experiment: ELISA, coated receptor-Fc
T5 construct: extracellular domain; hinge included for covalent assembly; also called OX40 receptor-Fc fusion protein; not shown: human Fc gamma 1 region including the hinge region
T5 sequence (looked up): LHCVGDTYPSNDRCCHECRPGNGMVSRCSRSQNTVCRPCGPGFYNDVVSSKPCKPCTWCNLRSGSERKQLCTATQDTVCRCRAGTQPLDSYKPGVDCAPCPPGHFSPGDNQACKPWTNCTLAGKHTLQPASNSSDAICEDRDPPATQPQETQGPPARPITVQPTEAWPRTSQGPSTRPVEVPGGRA

4-1BB-Fc [4] = biological target: T4, 4-1BB-Fc; experiment: ELISA, coated receptor-Fc; remark: listed apart in the source
CD40 receptor on cells = CD40 receptor on cells (human, UniProt P25942 21-277); experiment: cell-based or functional assay
CD40-Fc [5] = biological target: T1, CD40-Fc; experiment: ELISA, coated receptor-Fc; remark: listed apart in the source
Method: (§1) Receptor binding of the EHD2-scDuokines was analyzed by ELISA using fusion proteins of the extracellular region of CD40, CD27 and 4-1BB, respectively, with the human Fcγ1 region including the hinge region for covalent assembly (CD40-Fc, CD27-Fc, 4-1BB-Fc). Receptor-Fc fusion proteins (200 ng/well) were coated overnight at 4° C. and remaining binding sites were blocked with PBS, 2% skimmed milk powder (2% MPBS).

CD27-Fc [6] = biological target: T2, CD27-Fc; experiment: ELISA, coated receptor-Fc; remark: listed apart in the source
Method: as §1

T1 sequence (P25942 21-193 limits assumed): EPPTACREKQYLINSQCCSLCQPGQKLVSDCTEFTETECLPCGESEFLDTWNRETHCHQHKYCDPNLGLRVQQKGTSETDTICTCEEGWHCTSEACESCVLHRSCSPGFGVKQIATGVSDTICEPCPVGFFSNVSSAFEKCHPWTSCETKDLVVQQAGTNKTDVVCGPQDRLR
Sequence of 4-1BB receptor on cells (Q07011 24-255): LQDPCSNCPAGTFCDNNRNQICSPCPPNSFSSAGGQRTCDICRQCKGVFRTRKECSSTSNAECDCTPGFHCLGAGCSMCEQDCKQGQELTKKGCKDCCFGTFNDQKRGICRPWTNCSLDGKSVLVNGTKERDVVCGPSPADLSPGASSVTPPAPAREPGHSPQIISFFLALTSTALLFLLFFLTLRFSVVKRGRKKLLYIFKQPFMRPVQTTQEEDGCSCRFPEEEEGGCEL
Sequence of CD40 receptor on cells (P25942 21-277): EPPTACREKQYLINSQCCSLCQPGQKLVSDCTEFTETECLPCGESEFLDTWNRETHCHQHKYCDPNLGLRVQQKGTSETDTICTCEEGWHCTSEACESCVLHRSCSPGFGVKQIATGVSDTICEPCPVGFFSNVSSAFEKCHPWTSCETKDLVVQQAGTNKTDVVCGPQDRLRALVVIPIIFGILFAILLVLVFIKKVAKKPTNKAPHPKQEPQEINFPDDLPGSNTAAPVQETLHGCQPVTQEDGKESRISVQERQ

B1: scOX40L-sc4-1BBL (ligand)
chain: QVSHRYPRIQSIKVQFTEYKKEKGFILTSQKEDEIMKVQNNSVIINCDGFYLISLKGYFSQEVNISLHYQKDEEPLFQLKKVRSVNSLMVASLTYKDKVYLNVTTDNTSLDDFHVNGGELILIHQNPGEFCVLGGGSGGGQVSHRYPRIQSIKVQFTEYKKEKGFILTSQKEDEIMKVQNNSVIINCDGFYLISLKGYFSQEVNISLHYQKDEEPLFQLKKVRSVNSLMVASLTYKDKVYLNVTTDNTSLDDFHVNGGELILIHQNPGEFCVLGGGSGGGQVSHRYPRIQSIKVQFTEYKKEKGFILTSQKEDEIMKVQNNSVIINCDGFYLISLKGYFSQEVNISLHYQKDEEPLFQLKKVRSVNSLMVASLTYKDKVYLNVTTDNTSLDDFHVNGGELILIHQNPGEFCVLGGGGSGGGTGGGGSREGPELSPDDPAGLLDLRQGMFAQLVAQNVLLIDGPLSWYSDPGLAGVSLTGGLSYKEDTKELVVAKAGVYYVFFQLELRRVVAGEGSGSVSLALHLQPLRSAAGAAALALTVDLPPASSEARNSAFGFQGRLLHLSAGQRLGVHLHTEARARHAWQLTQGATVLGLFRVTPEIPAGLPSPRSEGGGGSGGGGSGGGGSREGPELSPDDPAGLLDLRQGMFAQLVAQNVLLIDGPLSWYSDPGLAGVSLTGGLSYKEDTKELVVAKAGVYYVFFQLELRRVVAGEGSGSVSLALHLQPLRSAAGAAALALTVDLPPASSEARNSAFGFQGRLLHLSAGQRLGVHLHTEARARHAWQLTQGATVLGLFRVTPEIPAGLPSPRSEGGGGSGGGGSGGGGSREGPELSPDDPAGLLDLRQGMFAQLVAQNVLLIDGPLSWYSDPGLAGVSLTGGLSYKEDTKELVVAKAGVYYVFFQLELRRVVAGEGSGSVSLALHLQPLRSAAGAAALALTVDLPPASSEARNSAFGFQGRLLHLSAGQRLGVHLHTEARARHAWQLTQGATVLGLFRVTPEIPAGLPSPRSE
notes: scDuokine from HEK293; VH leader left out; also called single-chain Duokine scOX40L-sc4-1BBL; not shown: N-terminal FLAG tag
CD40-Fc [1]
  binding result: no binding (tested: 100 nM (FIG. 10))
CD27-Fc [2]
  binding result: no binding (tested: 100 nM (FIG. 10))
4-1BB receptor on cells
  Receptor activation (EC50, nM): 2.83 nM
OX40 receptor on cells
  Receptor activation (EC50, nM): 0.56 nM
4-1BB-Fc [3]
  EC50: 4.61 nM
OX40-Fc
  EC50: 347 nM

B2: scCD40L-EHD2-scCD27L (ligand)
chain: GDQNPQIAAHVISEASSKTTSVLQWAEKGYYTMSNNLVTLENGKQLTVKRQGLYYIYAQVTFCSNREASSQAPFIASLCLKSPGRFERILLRAANTHSSAKPCGQQSIHLGGVFELQPGASVFVNVTDPSQVSHGTGFTSFGLLKLGGGSGGGGDQNPQIAAHVISEASSKTTSVLQWAEKGYYTMSNNLVTLENGKQLTVKRQGLYYIYAQVTFCSNREASSQAPFIASLCLKSPGRFERILLRAANTHSSAKPCGQQSIHLGGVFELQPGASVFVNVTDPSQVSHGTGFTSFGLLKLGGGSGGGGDQNPQIAAHVISEASSKTTSVLQWAEKGYYTMSNNLVTLENGKQLTVKRQGLYYIYAQVTFCSNREASSQAPFIASLCLKSPGRFERILLRAANTHSSAKPCGQQSIHLGGVFELQPGASVFVNVTDPSQVSHGTGFTSFGLLKLGGSGGDFTPPTVKILQSSCDGGGHFPPTIQLLCLVSGYTPGTINITWLEDGQVMDVDLSTASTTQEGELASTQSELTLSQKHWLSDRTYTCQVTYQGHTFEDSTKKCADSNGGSGGSLGWDVAELQLNHTGPQQDPRLYWQGGPALGRSFLHGPELDKGQLRIHRDGIYMVHIQVTLAICSSTTASRHHPTTLAVGICSPASRSISLLRLSFHQGCTIASQRLTPLARGDTLCTNLTGTLLPSRNTDETFFGVQWVRPGGGSGGGSLGWDVAELQLNHTGPQQDPRLYWQGGPALGRSFLHGPELDKGQLRIHRDGIYMVHIQVTLAICSSTTASRHHPTTLAVGICSPASRSISLLRLSFHQGCTIASQRLTPLARGDTLCTNLTGTLLPSRNTDETFFGVQWVRPGGGSGGGSLGWDVAELQLNHTGPQQDPRLYWQGGPALGRSFLHGPELDKGQLRIHRDGIYMVHIQVTLAICSSTTASRHHPTTLAVGICSPASRSISLLRLSFHQGCTIASQRLTPLARGDTLCTNLTGTLLPSRNTDETFFGVQWVRP
notes: From HEK293; Ig kappa leader left out; dimer through EHD2, about 50% covalently linked, SEC major peak at monomer size; also called EHD2-scDuokine scCD40L-EHD2-scCD27L; not shown: N-terminal FLAG tag
4-1BB-Fc [4]
  binding result: no binding (tested: 100 nM (FIG. 16))
CD40 receptor on cells
  Receptor activation (EC50, nM), IL-8 release from HT1080 cells: 2 nM
CD40-Fc [5]
  EC50: 4.05 nM
CD27-Fc [6]
  EC50: 2.03 nM
